In patent US12138304:

Columns and labels:
soluble CD4 (sCD4) = soluble CD4 (sCD4) (UniProt P01730); assay: SPR, apparent affinity for sCD4
[1] = biological target: BG505 DS gp160 (cell surface expressed trimer) (HIV-1 (clade A BG505)); assay: flow cytometry, 293F cells expressing gp160; mean of 3 experiments ± SD
[2] = biological target: BG505 F14 gp160 (cell surface expressed trimer) (HIV-1 (clade A BG505)); assay: as above
[3] = biological target: BG505 F14/Vt8 gp160 (cell surface expressed trimer) (HIV-1 (clade A BG505)); assay: as above
[4] = biological target: BG505 Vt8 gp160 (cell surface expressed trimer) (HIV-1 (clade A BG505)); assay: as above
[5] = biological target: BG505 gp160 (cell surface expressed trimer) (HIV-1 (clade A BG505)); assay: as above
[6] = biological target: BG505 DS gp160 (cell surface expressed trimer) (HIV-1 (clade A BG505)); assay: flow cytometry, 293F cells expressing gp160, antibody 10 ug/mL
[7] = biological target: BG505 F14 gp160 (cell surface expressed trimer) (HIV-1 (clade A BG505)); assay: as above
[8] = biological target: BG505 F14/Vt8 gp160 (cell surface expressed trimer) (HIV-1 (clade A BG505)); assay: as above
[9] = biological target: BG505 Vt8 gp160 (cell surface expressed trimer) (HIV-1 (clade A BG505)); assay: as above
[10] = biological target: BG505 gp160 (cell surface expressed trimer) (HIV-1 (clade A BG505)); assay: as above
[11] = biological target: BG505 F14 SOSIP (HIV-1 (clade A BG505)); assay: BLI dose response, one site specific binding fit to the average of two experiments
[12] = biological target: BG505 F14/Vt8 SOSIP (HIV-1 (clade A BG505)); assay: as above
[13] = biological target: BG505 SOSIP (HIV-1 (clade A BG505)); assay: as above
[14] = biological target: BG505 Vt8 SOSIP (HIV-1 (clade A BG505)); assay: as above
[15] = biological target: BG505 F14/Vt8 SOSIP (HIV-1 (clade A BG505)); assay: BLI dose response, antibody captured on anti-human Fc tips, SOSIP in solution
[16] = biological target: BG505 Vt8 SOSIP (HIV-1 (clade A BG505)); assay: as above

| Substance | percentage of cells binding [1] | percentage of cells binding [2] | percentage of cells binding [3] | percentage of cells binding [4] | percentage of cells binding [5] | Kd [11] | Kd [12] | Kd [13] | Kd [14] | also measured |
| --- | --- | --- | --- | --- | --- | --- | --- | --- | --- | --- |
| BG505 SOSIP |  |  |  |  |  |  |  |  |  | Kd (soluble CD4 (sCD4)): 67.9 nM |
| CH01 (antibody) | 20.8% | 37.7% | 22.1% | 30.2% | 32.8% |  |  |  |  |  |
| N6 (antibody) | 41% | 53.9% | 40.3% | 44.4% | 45.3% |  |  |  |  | MFI [6]: 338 MFI; MFI [7]: 568 MFI; MFI [8]: 341 MFI; MFI [9]: 378 MFI; MFI [10]: 457 MFI |
| PG9 (antibody) |  |  |  |  |  | 45.9 nM | 337 nM | 444 nM | 335 nM |  |
| PGT121 (antibody) |  |  |  |  |  | 219 nM | 262 nM | 222 nM | 260 nM |  |
| PGT125 (antibody) | 38.2% | 54.7% | 37.9% | 43.2% | 47.1% |  |  |  |  |  |
| PGT145 (antibody) | 35.4% | 48.8% | 34.8% | 38.2% | 46% | 76.5 nM | 80.2 nM | 64.2 nM | 68 nM |  |
| PGT151 (antibody) |  |  |  |  |  | 23.3 nM | 24 nM | 26.9 nM | 24 nM |  |
| VRC01 (antibody) |  |  |  |  |  | 566 nM | 314 nM | 612 nM | 269 nM | fold enhancement of affinity relative to BG505 SOSIP [15]: 2 fold; fold enhancement of affinity relative to BG505 SOSIP [16]: 2 fold |
| VRC26 (antibody) |  |  |  |  |  | 50.2 nM | 50.6 nM | 67.6 nM | 60.4 nM |  |
